In the supplement of paper PMC12764529:
± gives the half width of the 95% confidence interval.

Experiments:
[1] = folding stability dG unfold (combined trypsin and chymotrypsin); higher = more stable
Method in brief: (§1)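 Digests were run with trypsin and chymotrypsin at 11 concentrations in threefold dilutions, plus a no-protease condition, on designed mini-proteins in a PA-tagged cDNA display construct. The mini-proteins were under 80 residues, had no cysteine, and were kept only when AlphaFold2 dimer inter-PAE was above 15. After sequencing, Bayesian fitting of the counts gave K50, from which unfolding free energy was derived against a sequence-predicted unfolded-state K50 and a shared folded-state K50, per protease or combined.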

[2] = folding stability dG unfold from trypsin proteolysis; higher = more stable
Method in brief: as §1

[3] = folding stability dG unfold from chymotrypsin proteolysis; higher = more stable
Method in brief: as §1

Row | Sequence | folding stability dG unfold [1] | folding stability dG unfold [2] | folding stability dG unfold [3]
1 | SAGGSAGGSAMYTISYDPSTGTVTVSTPSGTTTTVPVADGPVTLTVTNPDGTTTTITLEGASAGGSAGGSAG [r3_499_JUSTAS] | 2.44 ± 0.068 kcal/mol | 2.56 ± 0.093 kcal/mol | 2.42 ± 0.029 kcal/mol
2 | SAGEIVIPIPFDWEQAPRMAKHLLRRFQQEGKKIRIWVPDAGAVEAIKDALPPNFPIEVEPLKPGEPIPSAG [r5_911_TrROS] | 0.909 ± 0.14 kcal/mol | 0.299 ± 0.34 kcal/mol | 1.27 ± 0.27 kcal/mol
3 | SAGGSDKEHDVEIKINIYVHDDGYIHIDIEVYNPGSPRPIMKFTIHIPAKDMQKKTGRPMTLEDILSAGGSA [r2_180_TrROS] | 2.38 ± 0.2 kcal/mol | 1.73 ± 0.16 kcal/mol | 2.75 ± 0.074 kcal/mol
4 | SAGGSMSLEEIKKLEIELEKEEGEKLKAEVTVLPDGKLFVRVNGKLFEIDLKTGKIVEVKELPPDESAGGSA [r2_374_TrROS_Hall] | 2.47 ± 0.21 kcal/mol | 2.49 ± 0.19 kcal/mol | 2.38 ± 0.057 kcal/mol
5 | SAGGSAGGSGITIPAGSPEKVYELLSALEKLGFKPKKVSVSGNYVIVDFENGIPVNIEINPGKSAGGSAGGS [r20_93_TrMRF] | 2.38 ± 0.052 kcal/mol | 1.06 ± 0.059 kcal/mol | 2.85 ± 0.039 kcal/mol
6 | SAGGTAEEIAEKVRDIFQDNGYPIEVEPRRWDPNNYVTWRMRMPGWSIEIQWDPDDLEVEIEIEPMPSAGGS [r8_157_TrROS] | 3.24 ± 0.2 kcal/mol | 2.47 ± 0.073 kcal/mol | 3.71 ± 0.11 kcal/mol
7 | SAGGSAGGSAGGKPYVIVPVTVRFTIDIPKDHPLLKELDINPEDVKIEFEFSFLGEVPASAGGSAGGSAGGS [r10_82_TrMRF] | 2.95 ± 0.12 kcal/mol | 2.66 ± 0.096 kcal/mol | 2.97 ± 0.089 kcal/mol
8 | EEEVEELAKKLEEELRKKLRELFPEMSEEDIKIEEIEVEKTVTVEVNGEKKEIKVKVKIKMSEEVLERLKKS [r1_299_TrROS_Hall] | 1.72 ± 0.42 kcal/mol | 1.98 ± 0.14 kcal/mol | 2.09 ± 0.33 kcal/mol
9 | SAGGSAGGSAAMLNRKPTVYPLPDDTVRLEETVPSPGTKIYKTIKLPPGGLIEEGDVSYPPSAGGSAGGSAG [r3_165_JUSTAS] | -0.521 ± 0.19 kcal/mol | -1.08 ± 0.31 kcal/mol | -0.367 ± 0.23 kcal/mol
10 | SAGGSAPVEVRVSVEVLPDGTLRITVEFTLPNGEKLSVEFTIPLAPVPVVDLTSPEALFPALSLLSSAGGSA [r15_1018_TrMRF] | 2.42 ± 0.17 kcal/mol | 2.43 ± 0.07 kcal/mol | 2.41 ± 0.069 kcal/mol
11 | SAGGYEKKTIRIEATPEELENLLKELREKYPDLKVEVKVVKVEKKENDPNVSPKDKKVYLEITVVKPKPSAG [r5_437_TrROS_Hall] | 1.88 ± 0.17 kcal/mol | 1.39 ± 0.12 kcal/mol | 1.89 ± 0.13 kcal/mol
12 | SAGGKEVKITIEYDEETKEVRVTIEKDGKEITVTMTAEELKKLLEELEKLPPVVVKDKDGKEKVVLLSAGGS [r8_332_TrROS_Hall] | 0.696 ± 0.13 kcal/mol | 1.14 ± 0.037 kcal/mol | -0.472 ± 0.26 kcal/mol
13 | SAGGSAGGSAGGPEIVSAEVLAVFDDGKLVKVKLRVPTPGKGYRYLEAVFLVKPGEKLLSAGGSAGGSAGGS [r10_1183_TrMRF] | 2.1 ± 0.033 kcal/mol | 2.05 ± 0.052 kcal/mol | 2.12 ± 0.033 kcal/mol
14 | SAGGSAGGSHTIEIWIVKFPPDDFKGKTIEEMAKKFGDPDMPVEIVPIEITLPPDALKALLKNSAGGSAGGS [r12_178_TrROS] | 0.846 ± 0.059 kcal/mol | 0.768 ± 0.033 kcal/mol | 0.841 ± 0.061 kcal/mol
15 | SAKITKIEINEDGTLTITIEVELPEGMEADELVIFVEVDGKIYEATIKKDGTVEIKLKNIKDLKIYIFKKSA [r9_722_TrROS_Hall] | 4.95 ± 0.16 kcal/mol | 3.87 ± 0.28 kcal/mol | 5.04 ± 0.12 kcal/mol
16 | SAGGSAGGDTVVIEVDMSEEEALALARALADAGKTVEIVVRDKDGRTRKITITVPPEELELPEESAGGSAGG [r6_62_TrROS_Hall] | 1.95 ± 0.042 kcal/mol | 1.74 ± 0.019 kcal/mol | 2.11 ± 0.029 kcal/mol
17 | SAGGMKFKIVKIEVKEDKVTIEIEAETEEELEEAKKLAEELAKKLGLSKEKIEVKIELRPPPEEEEEESAGG [r13_430_TrROS_Hall] | 2.55 ± 0.52 kcal/mol | 2.43 ± 0.23 kcal/mol | 2.19 ± 0.15 kcal/mol
18 | SAGGSAGGSAGGSPPMPMRIDEVEYDPPNGRYEITVEPDNGNPQTITMPPGNIDEAYIVSAGGSAGGSAGGS [r4_51_TrROS] | 1.15 ± 0.16 kcal/mol | 1.47 ± 0.12 kcal/mol | 0.978 ± 0.042 kcal/mol
19 | SAGGDTFLMLHPHPVKDNGKDKPYYHIMVMKITEVEPDNGKPRLKMEMKMIHIPADDPDALKEAGIPISAGG [r13_670_TrROS] | 1.77 ± 0.16 kcal/mol | 1.81 ± 0.1 kcal/mol | 1.52 ± 0.21 kcal/mol
20 | SAGGSAGGSAMQPIRIKITLYNPDNGDTRTYTVEVPDPNMSLDAIAKQLPPGYRIKKVSIMSAGGSAGGSAG [r3_80_TrROS] | 3.68 ± 0.13 kcal/mol | 3.38 ± 0.13 kcal/mol | 3.815 ± 0.033 kcal/mol
21 | SKEEKPPEVKTFKVKKIEFDPETKKITVEVDGKKLTLELKPGQEVEIFKDGKEIRVVRLAPPPPEKKEKKSA [r9_551_TrROS_Hall] | > 6 kcal/mol | 1.94 ± 0.36 kcal/mol | 2.95 ± 0.27 kcal/mol

Row | Sequence | folding stability dG unfold [1] | folding stability dG unfold [2] | folding stability dG unfold [3]
22 | SAGGSAGGSAGGPVVEELEEDLVTEYFRDGDDLYKVVFIPGTGKPFEKKIESIPPDEPFSAGGSAGGSAGGS [r10_240_TrMRF] | 2.34e-05 ± 0.23 kcal/mol | 0.119 ± 0.088 kcal/mol | -0.0602 ± 0.21 kcal/mol
23 | SAGPPDWKPIAEFEYNIPMPPGETASEIENEILERIRPQGIKYVTIPVQYDPENGWIQVDVEIWVPPGASAG [r5_924_TrROS] | 0.891 ± 0.11 kcal/mol | 0.898 ± 0.03 kcal/mol | 0.849 ± 0.16 kcal/mol
24 | SAGGSEEERKRILEELKKKNPEKDVEVKVERKTYKVPAGTVVTLPDGTKIVAPADTTVEIYKVEIIKSAGGS [r16_357_JUSTAS] | 1.95 ± 0.2 kcal/mol | 1.32 ± 0.068 kcal/mol | 2.14 ± 0.037 kcal/mol
25 | SAGGSAGGSAGGKPKPIKIEVYYDEKTGKLLVKVTLPNGKPVTLEFDDIGDIDEVKKAAGSAGGSAGGSAGG [r7_41_TrMRF] | 2.44 ± 0.18 kcal/mol | 1.36 ± 0.092 kcal/mol | 2.97 ± 0.16 kcal/mol
26 | SAGGKKKKIIIVLSKEEAEKKAEELKKELEKKGIEVEEVKVVEGMSEEEVKELAEKEKKPVIVIEPKSAGGS [r16_94_TrROS_Hall] | 0.813 ± 0.14 kcal/mol | -0.158 ± 0.077 kcal/mol | 1.27 ± 0.075 kcal/mol
27 | SAGMVIAIKPGEPRILVSGLPPELVRRIAEELGAPDVVPVEPGVPAWTALENHPDPAAFLVIPPELALSAGG [r19_270_TrMRF] | 0.0501 ± 0.15 kcal/mol | -0.822 ± 0.7 kcal/mol | 0.393 ± 0.12 kcal/mol
28 | SAGGSGPDVPLEEIARRIAEELGVPILSVDFERDPEAPVVTIRVTFRSPAPGRLEERTVVLPRELLSAGGSA [r2_156_JUSTAS] | 0.883 ± 0.068 kcal/mol | 0.942 ± 0.035 kcal/mol | 0.759 ± 0.083 kcal/mol
29 | SAGGSAGGSAMKEIKIELTYEDEEEAEKKAKEEKEKIKKELEEKGIKVEKITVEIHPPYHHSAGGSAGGSAG [r3_463_JUSTAS] | 0.796 ± 0.14 kcal/mol | -0.647 ± 0.095 kcal/mol | 1.12 ± 0.067 kcal/mol
30 | SAGGSAGGSAGGSKLKIELNEDGTLRIVNEDTNEVYEIKLELPPPPPVETEVKYVSLEDLSAGGSAGGSAGG [r11_352_TrROS_Hall] | 0.47 ± 0.31 kcal/mol | 0.604 ± 0.18 kcal/mol | 0.842 ± 0.26 kcal/mol
31 | SAGGSAGGSEKEIEVNGKKITIEKNEDGSYKLIIEVNGKKYEITLSLEELKKKNLTIEELLKKSAGGSAGGS [r20_90_TrROS_Hall] | 3.26 ± 0.16 kcal/mol | 1.92 ± 0.072 kcal/mol | 3.61 ± 0.13 kcal/mol
32 | SKPMSPRDQLREIADDIAEKLNEKNGKPYKVRVEFEYPNMPFEIEIPPEAPIEDIMDHFPGWKIKVEIEPSA [r9_513_TrROS] | 0.0339 ± 0.52 kcal/mol | 0.00988 ± 0.15 kcal/mol | 0.0344 ± 0.32 kcal/mol
33 | SAGGSAGGSKKPVKVTVTVEVNPETGEITKVTVTEEYKDGTVTVTVTNANGEKLTFTFKIKKPSAGGSAGGS [r12_60_TrROS_Hall] | 2.79 ± 0.082 kcal/mol | 2.15 ± 0.11 kcal/mol | 3.099 ± 0.024 kcal/mol
34 | SAGGSAGGSAGGKEPKKVKVYLFNENGELIGVFELEVETLEELEEAVRKLGFLAVVEPESAGGSAGGSAGGS [r10_958_TrMRF] | 4.4 ± 0.077 kcal/mol | 4.14 ± 0.096 kcal/mol | 4.43 ± 0.069 kcal/mol
35 | SAGGSAGGSAGNVTLTRVEVLEGEDDRPLIKATFSFEPGPQVLVFEGDNPDDIEIDVDVGSAGGSAGGSAGG [r17_64_TrMRF] | -0.0491 ± 0.13 kcal/mol | -0.45 ± 0.096 kcal/mol | 0.0818 ± 0.12 kcal/mol
36 | SMMKVKVRITFEDGEEVEIEIEMSREELKNKIEELIKELAEKEGKEVKEVKIEIVDEKTNETYTFTIKVKSA [r9_1193_TrROS_Hall] | 3.65 ± 0.3 kcal/mol | 4.14 ± 0.19 kcal/mol | 3.92 ± 0.088 kcal/mol
37 | SAGGSAGGSKPPVKTIPRWIPFPPGQTPNELVDELRKLFPPGMEVDVEYDPEPGYVRVSITFRSAGGSAGGS [r12_12_TrROS] | 2.06 ± 0.097 kcal/mol | 2.19 ± 0.042 kcal/mol | 1.86 ± 0.047 kcal/mol
38 | SAGGSAGGEWVIINIMFRFPPGDPNIKIEIKFPGLPKDMKIEYSIFPTDNWYYIMVSIWVPPNASAGGSAGG [r6_482_TrROS] | 4.85 ± 0.34 kcal/mol | 3.66 ± 0.29 kcal/mol | 5.16 ± 0.15 kcal/mol
39 | SAGSMRITVEITFTSPEGVVKTKTVEVDLSSGSIDLSPEVIEAAKKELGLPPNVTVTLTVVEERPELESAGG [r19_287_JUSTAS] | 3.69 ± 0.11 kcal/mol | 4.06 ± 0.22 kcal/mol | 3.37 ± 0.11 kcal/mol
40 | SAGGKKIVIVAPPGMSPEELAELLKKLFPGLEVEVREVSAEELKKLKPGDEVLVIEVDGRLYAVKIKPSAGG [r13_649_TrROS_Hall] | 3.21 ± 0.12 kcal/mol | 2.05 ± 0.11 kcal/mol | 3.67 ± 0.14 kcal/mol
41 | SAGMEKKTFTFPTRTVLVVRGPDGTVLVVVDDPDGDPEVLTPDGTPVPYVDLPNGQRLYRFPAALFEKVSAG [r5_457_TrMRF] | 2.88 ± 0.063 kcal/mol | 2.1 ± 0.035 kcal/mol | 3.182 ± 0.023 kcal/mol
42 | SNNNEVTIEIMIMFKYPRPEYDPDNGKPEPEPVYFMFPIKIEGKADDPEDAKRAADNILDRFLKDPDYIMSA [r9_77_TrROS] | 2.6 ± 0.17 kcal/mol | 1.79 ± 0.12 kcal/mol | 2.95 ± 0.045 kcal/mol
